From patent US20240190985A1

What was measured:
[1] = target: SUMO-CD99 fusion protein (SUMO fused with the extracellular domain of CD99, residues 23-122) (human) (UniProt P14209); test: apparent affinity to the recombinant ECD of CD99; method not given, value compared with the bead-based values of FIG. 1F
[2] = target: CD99 endogenously expressed on cells (Jurkat, KOPT-K1) (UniProt P14209); test: cell binding; apparent KD; nM Fv; avid
[3] = target: CD99 endogenously expressed on cells (Jurkat, KOPT-K1) (UniProt P14209); test: cell binding; apparent KD; nM molecule; avid

Chain of CD99 endogenously expressed on cells (Jurkat, KOPT-K1) (P14209 23-185): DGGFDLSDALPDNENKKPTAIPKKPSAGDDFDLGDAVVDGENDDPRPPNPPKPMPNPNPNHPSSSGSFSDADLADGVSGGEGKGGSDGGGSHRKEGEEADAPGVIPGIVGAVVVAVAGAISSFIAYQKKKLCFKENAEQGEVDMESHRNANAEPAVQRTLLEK
Chain of SUMO-CD99 fusion protein (SUMO fused with the extracellular domain of CD99, residues 23-122) (human) (P14209 23-122): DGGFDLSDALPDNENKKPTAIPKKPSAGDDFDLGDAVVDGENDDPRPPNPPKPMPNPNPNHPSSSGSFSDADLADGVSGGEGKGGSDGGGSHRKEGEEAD

Substance | Kd [1] | Kd [2] | Kd [3]
anti-CD99 mouse IgM, HO36-1.1 (ab212605, Abcam) (antibody) | 226 nM |  | 
bivalent SAV-10A1 Fab complex (A2D2 streptavidin with biotinylated 10A1 Fab) (from UniProt P22629 37-163; P22629 37-163) |  | 5.2 nM | 2.6 nM
trivalent SAV-10A1 Fab complex (A3D1 streptavidin with biotinylated 10A1 Fab) (from UniProt P22629 37-163; P22629 37-163) |  | 3.9 nM | 1.3 nM
